T1: porcine FAP (pFAP) extracellular domain (ECD) (pig, UniProt A5D7B7 39-760 (bovine entry))
T1 construct: also called pFAP-ECD
T1 chain: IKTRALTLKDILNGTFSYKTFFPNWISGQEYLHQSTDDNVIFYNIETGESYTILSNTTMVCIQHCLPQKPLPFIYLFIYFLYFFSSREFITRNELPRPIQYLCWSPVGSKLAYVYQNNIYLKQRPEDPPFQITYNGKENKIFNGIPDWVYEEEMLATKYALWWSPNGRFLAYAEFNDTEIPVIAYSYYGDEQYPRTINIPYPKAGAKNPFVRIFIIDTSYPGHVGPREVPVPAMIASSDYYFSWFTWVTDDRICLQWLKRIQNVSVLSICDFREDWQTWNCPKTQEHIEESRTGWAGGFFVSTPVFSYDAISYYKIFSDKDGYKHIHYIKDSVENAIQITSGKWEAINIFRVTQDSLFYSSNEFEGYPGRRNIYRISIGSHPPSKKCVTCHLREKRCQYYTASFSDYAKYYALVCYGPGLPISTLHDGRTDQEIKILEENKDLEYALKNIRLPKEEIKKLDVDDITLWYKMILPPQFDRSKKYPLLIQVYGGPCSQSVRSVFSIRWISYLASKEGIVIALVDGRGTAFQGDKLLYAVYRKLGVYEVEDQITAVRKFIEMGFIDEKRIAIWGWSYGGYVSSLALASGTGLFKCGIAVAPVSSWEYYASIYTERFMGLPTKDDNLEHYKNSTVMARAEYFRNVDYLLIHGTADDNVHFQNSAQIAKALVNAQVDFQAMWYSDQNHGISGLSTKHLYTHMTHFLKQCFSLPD

T2: human FAP-ECD (extracellular domain) recombinant fragment containing a C-terminal His6 tag (human, UniProt Q12884 26-760, randomly biotinylated with NHS ester-activated biotin (as used on the SA chip and Streptawell plates))
T2 construct: also called biotinylated human FAP-ECD; biotinylated human FAP
T2 sequence: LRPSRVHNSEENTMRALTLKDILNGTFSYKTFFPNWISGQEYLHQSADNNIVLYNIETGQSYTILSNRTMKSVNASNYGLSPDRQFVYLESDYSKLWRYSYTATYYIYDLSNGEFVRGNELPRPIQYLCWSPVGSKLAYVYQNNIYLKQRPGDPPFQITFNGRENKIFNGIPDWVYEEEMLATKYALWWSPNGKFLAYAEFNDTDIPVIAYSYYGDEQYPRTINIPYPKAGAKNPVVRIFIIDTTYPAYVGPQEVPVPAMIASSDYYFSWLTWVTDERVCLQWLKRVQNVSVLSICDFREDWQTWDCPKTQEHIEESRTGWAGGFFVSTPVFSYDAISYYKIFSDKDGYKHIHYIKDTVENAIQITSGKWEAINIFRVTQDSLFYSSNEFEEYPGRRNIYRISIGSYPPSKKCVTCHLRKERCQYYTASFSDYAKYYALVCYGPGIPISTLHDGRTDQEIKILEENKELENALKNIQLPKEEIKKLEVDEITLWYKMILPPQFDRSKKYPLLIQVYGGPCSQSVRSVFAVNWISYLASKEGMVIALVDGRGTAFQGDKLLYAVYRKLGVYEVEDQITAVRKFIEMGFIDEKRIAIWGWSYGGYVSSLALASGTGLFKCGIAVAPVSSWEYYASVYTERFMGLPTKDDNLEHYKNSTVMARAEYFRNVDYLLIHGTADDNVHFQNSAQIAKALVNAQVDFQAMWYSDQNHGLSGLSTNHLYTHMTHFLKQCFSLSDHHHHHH


What was measured:
[1] = target: T1, porcine FAP (pFAP) extracellular domain …; assay: ELISA, 120 nM pFAP-ECD coated on Maxisorp plates
Protocol: Cross-reactivity of the anti-hFAP antibodies with oFAP-ECD and pFAP-ECD was tested using ELISA. 120 nM of oFAP-ECD or pFAP-ECD was coated on Maxisorp plates overnight at 4° C. […] Specifically, the C5 antibody was employed in IgG2a format, while all other antibodies, including the 7NP2 antibody, were in IgG1 format. The differences between the IgG2a and IgG1 formats are not expected to affect binding to FAP. After 3 washes with PBS, binding of the antibodies to oFAP-ECD and pFAP-ECD was detected using an anti-human or anti-murine antibody HRP conjugate.

[2] = target: T2, human FAP-ECD (extracellular domain) …; assay: epitope ELISA on biotinylated human FAP, co-incubated with C5 IgG2a, 5 ug/mL
Protocol: To evaluate binding, 100 nM of biotinylated human FAP were coated on Streptawell plates for 30 min at 37° C.
The C5 antibody in IgG2a format was incubated together with the 7NP2 antibody in IgG1 format, the F5 antibody in IgG1 format (WO2016/116399), the ESC11 antibody in IgG1 format (Fisher et al., (2012) Clin Cancer Res; 18(22)), or the (negative control) antibody KSF in IgG1 format for 1.5 h at room temperature at a concentration of 5 μg/mL in the antigen-coated wells. After 3 washes with PBS, binding of the antibodies to human FAP was detected using anti-human or anti-murine HRP conjugates (FIG. 7).

| binding result [1] | binding result [2] | Binder |
| --- | --- | --- |
| no binding (tested: 5 µg/mL) |  | anti-hen egg lysozyme antibody KSF in IgG1 format (antibody, V domains shown, Negative control; It was conjugated to FITC in the immunofluorescence and ex vivo experiments; also called KSF IgG1; KSF(IgG1)) VH: not shown VL: SSELTQDPAVSVALGQTVRITCQGDSLRSYYASWYQQKPGQAPVLVIYGKNNRPSGIPDRFSGSSSGNTASLTITGAQAEDEADYYCQSSPLNRLAVVFGGGTKLTVLG |
|  | binds | anti-FAP antibody 7NP2 in IgG1 format (antibody, V domains shown, also called 7NP2 IgG1; 7NP2(IgG1)) VH: EVQLLESGGGLVQPGGSLRLSCAASGFTFSSYAMSWVRQAPGKGLEWVSAIGSVGGPTYYADSVKGRFTISRDNSKNTLYLQMNSLRAEDTAVYYCAKRLAWFDYWGQGTLVTVSS VL: EIVLTQSPGTLSLSPGERATLSCRASQSVSSSYLAWYQQKPGQAPRLLIYGASSRATGIPDRFSGSGSGTDFTLTISRLEPEDFAVYYCQQSGKGPLTFGQGTKVEIKR |

Source: patent publication US20240199762A1 (PHILOGEN S P A, published 2024)
